B1: Protein phosphatase 1 regulatory subunit SDS22 (Saccharomyces cerevisiae), P36047 (parent)
chain: MDKNSVNKDSEEKDERHKIEVVDDTNPDFITADSELTQDLPDDVEVIDLVHLKIKSLEDLNLYRFKNLKQLCLRQNLIESISEVEVLPHDKIVDLDFYDNKIKHISSNVNKLTKLTSLDLSFNKIKHIKNLENLTDLENLYFVQNSISKIENLSTLKSLKNLELGGNKVHSIEPDSFEGLSNLEEIWLGKNSIPRLINLHPLKNLKILSIQSNKLKKIENLEELTNLEELYLSHNFITKIEGLEKNLKLTTLDVTSNKITSLENLNHLSNLTDIWASFNKIDQSFESLGENLSALSRLETIYLEGNPIQLENKTSYRRKLTMNLPPSLQKIDATYIRG

Variants of: B1
Details: with pp12_yeast GLC7, P32598
Chain of pp12_yeast GLC7, P32598 (P32598 whole entry): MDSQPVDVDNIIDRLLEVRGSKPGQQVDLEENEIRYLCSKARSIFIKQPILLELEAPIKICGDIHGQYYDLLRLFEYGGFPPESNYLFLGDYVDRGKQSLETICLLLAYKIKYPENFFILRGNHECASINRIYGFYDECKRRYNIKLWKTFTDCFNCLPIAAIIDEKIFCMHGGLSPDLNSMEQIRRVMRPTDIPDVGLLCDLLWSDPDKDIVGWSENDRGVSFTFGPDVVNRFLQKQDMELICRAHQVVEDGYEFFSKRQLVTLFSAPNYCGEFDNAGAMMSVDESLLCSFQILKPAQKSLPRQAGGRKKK
MDKNSVNKDSEEKDERHKIEVVDDTNPDFITADSELTQDLPDDVEVIDLVHLKTKSLEDLNLYRFKNLKQLCLRQNLIESISEVEVLPHDKIVDLDFYDNKIKHISSNVNKLTKLTSLDLSFNKIKHIKNLENLTDLENLYFVQNSISKIENLSTLKSLKNLELGGNKVHSIEPDSFEGLSNLEEIWLGKNSTPRLINLHPLKNLKILSIQSNKLKKIENLEELTNLEELYLSHNFITKIEGLEKNLKLTTLDVTSNKITSLENLNHLSNLTDIWASFNKIDQSFESLGENLSALSRLETIYLEGNPIQLENKTSYRRKLTMNLPPSLQKIDATYIRG [I54T;I193T] was tested, and the “effect of a mutation on the interaction” value was “decreasing interaction strength”.
